Test results as given in publication PMC11633101.
pKd: −log10 of the molar value.

Target: bovine NECTIN1 with 6×his tag, purified from CHO cells (bovine)
Experiment: SPR; Biacore 8K, CM5 chip, 25°C, single-cycle mode, PBS; NECTIN1 and CD46 captured on the chip, serial dilutions of BVDV E2 injected; regeneration with glycine pH 2.5

How did the pKd turn out when “BVDV E2 protein with 6×his tag, purified from 293F cells (from UniProt P19711 693-1066) (natural protein)” was run?
Its pKd is 11.46.
